Columns and labels:
HEK293 cells = experiment: Luciferase luminescence by transient expression in HEK293 cells after luciferin addition; assay type: cell-based; details: living HEK293 cells, luciferin 740 μM final concentration
Description: Production of luminescence by nnLuz_v3 was measure in E. coli lysates by the above method, and in mammalian cells (HEK293 cells). The HEK293 cells were transfected using the FugeneHD transfection reagent (Promega) according to the manufacturer's instructions. Cells were grown overnight under CO2 at 37° C. in 96-well white assay plates. For luminescence measurements, media was removed and replaced with 100 μl of CO2 independent media (Life Technologies 18045) containing 10% FBS. 33 μl of luciferin was added to cells (740 μM final concentration). The luminescence was measured using a GloMax-Multi+luminometer (Promega).

[1] = Luciferase luminescence in E. coli lysates after luciferin addition; assay type: biochemical; details: 100 μM luciferin, maximal brightness
Text: A library of amino acid substitutions was created applying mutagenesis to a gene encoding the luciferase derived from Neonothopanus nambi (SEQ ID NO: 8). pF4Ag shuttle vector (Promega) was used for gene expression in E. coli (T7 promoter-driven expression) and mammalian cells (CMV promoter-driven expression). The pF4Ag vector backbone introduces a C-terminal 3×-FLAG-HiBiT tag. Site-directed mutagenesis was used to substitute consensus amino acids at selected position in the luciferase sequence. Gene expression was performed in the E. coli strain KRX (Promega), which enables rhamnose-inducible expression of T7 RNA polymerase.
Colonies (in triplicate) were used to inoculate LB broth containing ampicillin ([…]) and cultures grown overnight in 96-well microtiter plates (20 hours, 37° C.). Cultures were diluted into fresh LB containing 0.1% rhamnose and ampicillin and grown for 3 hours at 37° C. 50 μl of the induced culture was lysed for 5 minutes at ambient temperature with a reagent consisting of 25 mM HEPES pH 7.5 and 0.3×PLB (E1941 Promega). 50 μl of lysate was combined with 50 μl luciferin (100 μM) in the lysis buffer and samples were measured for total luminescence using a GloMax®-Multi+luminometer. (Promega).

[2] = Enzyme thermostability in cleared E. coli lysates incubated at 22° C.; assay type: biochemical; details: then 100 μM luciferin
Description: To assess the effect on enzyme thermostability by the amino acid substitutions, lysates of transformed E. coli were prepared by sonication and cleared by centrifugation. The cleared lysates were diluted 1:100 into Tris-buffered saline with 0.01% BSA and 0.1% n-dodecyl β-D-maltoside. 100 μl of each diluted lysate were added to a 96-well PCR plate. Samples were incubated at 22° C. and at various time points aliquots were placed on ice. When all of the samples were processed, 50 μl of each was combined with 50 μl of 100 μM luciferin in Tris-buffered saline with 0.01% BSA and 0.1% n-dodecyl β-D-maltoside. Samples were immediately placed in a GloMax®-Multi+luminometer (Promega) to measure bioluminescence.

[3] = test system: HEK293NT or HEK293 cell lines; experiment: Pathway luminescence in transfected mammalian cells in the presence of caffeic acid; assay type: cell-based; details: gene set expressing nnLuz_WT, mcitHispS, nnCPH, and NpgA
Description: In different sets of experiments, HEK293NT or HEK293 cell lines were seeded in 96-well plates (ibidi, ibiTreat μ-Plate 96 Well Black). Cells were transfected with a mixture of the five plasmids that encoded variants of nnLuz, and nnH3H, along with nnHispS or mcitHispS, nnCPH, and NpgA by PolyFect Transfection Reagent (QIAGEN) according to the manufacturer's protocol, using 2 μl PolyFect per well and a mixture of plasmids containing 44 ng of plasmid expressing nnLuz, and equivalent amounts of the other four plasmids according to their size. Transfected cells were grown in DMEM (PanEco) supplemented with 10% fetal bovine serum (HyClone), 4 mM L-glutamine, 10 U/ml penicillin and 10 µg/ml streptomycin, at 37° C. and 5% CO2. Twenty-four hours after transfection, the medium was changed to 25 μM or 100 μM caffeic acid solution (0.1% DMSO in DPBS) and luminescence was imaged for 23 minutes by IVIS Spectrum CT (PerkinElmer) at 37° C. every 9 seconds with open filter, binning of 16 and exposure of 5 seconds. The number of independent replicates is included in the figure's legends.

Pichia pastoris GS115 = experiment: Luminescence imaging of transformed yeast after addition of luciferin, hispidin or caffeic acid; assay type: cell-based
Description: Integration of plasmids into the genome of Pichia pastoris GS115 was targeted at the GAP promoter locus. Linearized plasmids were used for the transformation of electrically competent yeast cells. Colonies were selected using […] of G418 or 200 mg/ml of hygromycin or 50 mg/ml of zeocin. PCR-based screening of yeast colonies was done by heating up colonies in 10 μl of 20 mM NaOH at 90° C. for 7 min and then using 1 μl of the resulting solution for direct PCR. For luminescence imaging, yeast culture grown on plate was resuspended in 50 μL of 1M sorbitol. 5 μL of the suspension was then added in 3 replicates to YPD agar plates lacking antibiotics. […] Imaging was performed in Fusion Pulse (Vilber, France), with exposure of 0.1 or 5 sec every 3 or 5 min for 1.0-1.5 hours—for caffeic acid treatment, with exposure of 20 sec for 20 mins—for hispidin treatment, with exposure of 0.5 sec every 10 sec for 10 mins in case of luciferin treatment.
Processing of images was performed using FiJi ImageJ distribution (version 1.53t) 20 and custom Python scripts (Python version 3.8). For luminescence quantification mean values in the region of interest after background subtraction were used. Background subtraction was performed using the following formula: signal=signalraw−(backgroundmean−3*backgroundSD).

| Molecule | production of bioluminescence relative to parental nnLuz_WT (HEK293 cells) | production of bioluminescence relative to parental nnLuz [1] | enzyme stability relative to unmodified parental luciferase [2] | greater luminescence compared with nnH3H_WT [3] | bioluminescence relative to cells expressing nnH3H_WT and nnLuz_WT (Pichia pastoris GS115; co-expressed with nnLuz_WT, addition of 100 μM hispidin) | greater luminescence relative to nnH3H_WT (Pichia pastoris GS115; combined with nnLuz_WT, mcitHispS and NpgA, caffeic acid) |
| --- | --- | --- | --- | --- | --- | --- |
| nnLuz_v3: N. nambi luciferase with substitutions T99P, T192S, A199P combined (SEQ ID NO: 2) (protein, listed as Neonothopanus nambi) MRINISLSSLFERLSKLSSRSIAITCGVVLASAIAFPIIRRDYQTFLEVGPSYAPQNFRGYIIVCVLSLFRQEQKGLAIYDRLPEKRRWLADLPFREGPRPSITSHIIQRQRTQLVDQEFATRELIDKVIPRVQARHTDKTFLSTSKFEFHAKAIFLLPSIPINDPLNIPSHDTVRRTKREIAHMHDYHDCSLHLALAPQDGKEVLKKGWGQRHPLAGPGVPGPPTEWTFLYAPRNEEEARVVEMIVEASIGYMTNDPAGKIVENAK | substantially greater | substantially greater | greater enzyme stability | – | – | – |
| nnH3H_v2: N. nambi hispidin hydroxylase with D37E, V181I, S323M, and M385K (SEQ ID NO: 6) (protein, listed as Neonothopanus nambi) MASFENSLSVLIVGAGLGGLAAAIALRRQGHVVKIYESSSFKAELGAGLAVPPNTLRSLQQLGCNTENLNGVDNLCFTAMGYDGSVGMMNNMTDYREAYGTSWIMVHRVDLHNELMRIALDPGGLGPPATLHLNHRVTFCDVDACTVTFTNGTTQSADLIVGADGIRSTIRRFVLEEDVTVPASGIVGFRWLVQADALDPYPELDWIVKKPPLGARLISTPQNPQSGVGLADRRTIIIYACRGGTMVNVLAVHDDERDQNTADWSVPASKDDLFRVFHDYHPRFRRLLELAQDINLWQMRVVPVLKKWVNKRVCLLGDAAHAMLPTLGQGFGMGLEDAVALGTLLPKGTTASQIETRLAVYEQLRKDRAEFVAAESYEEQYVPEKRGLYLRSKELRDRVMGYDIKVESEKVLETLLRSSNSA | – | – | – | 2.5 fold | greater bioluminescence | 3.9 fold |
